From article PMC8988012 (The Journal of Biological Chemistry, 2022)

T1: His-Zyxin (wildtype) (UniProt Q15942 1-572)
T1 sequence (looked up): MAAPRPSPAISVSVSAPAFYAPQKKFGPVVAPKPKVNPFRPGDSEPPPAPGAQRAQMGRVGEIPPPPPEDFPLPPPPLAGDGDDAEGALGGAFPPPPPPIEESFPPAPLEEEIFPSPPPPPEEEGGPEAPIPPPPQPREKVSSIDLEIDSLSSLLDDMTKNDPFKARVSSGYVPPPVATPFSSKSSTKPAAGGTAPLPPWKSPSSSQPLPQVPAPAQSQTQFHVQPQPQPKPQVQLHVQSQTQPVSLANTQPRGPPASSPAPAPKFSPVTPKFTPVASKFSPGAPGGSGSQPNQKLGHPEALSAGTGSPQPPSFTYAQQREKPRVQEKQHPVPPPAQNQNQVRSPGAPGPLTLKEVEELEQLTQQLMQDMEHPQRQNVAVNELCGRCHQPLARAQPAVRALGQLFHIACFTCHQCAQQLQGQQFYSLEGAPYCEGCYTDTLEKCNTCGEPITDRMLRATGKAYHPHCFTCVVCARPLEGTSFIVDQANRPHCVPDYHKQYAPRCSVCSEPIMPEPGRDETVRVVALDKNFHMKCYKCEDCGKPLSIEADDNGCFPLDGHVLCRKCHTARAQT

B1: Zyxin: S169C (protein)
parent chain: T1 sequence (looked up)
B2: GST-14-3-3γ (natural protein, UniProt P61981 1-247, looked up)
chain: MVDREQLVQKARLAEQAERYDDMAAAMKNVTELNEPLSNEERNLLSVAYKNVVGARRSSWRVISSIEQKTSADGNEKKIEMVRAYREKIEKELEAVCQDVLSLLDNYLIKNCSETQYESKVFYLKMKGDYYRYLAEVATGEKRATVVESSEKAYSEAHEISKEHMQPTHPIRLGLALNYSVFYYEIQNAPEQACHLAKTAFDDAIAELDTLNEDSYKDSTLIMQLLRDNLTLWTSDQQDDDGGEGNN

Legend:
[1] = mCherry-Zyxin microscopy, U2OS, ± GFP-14-3-3γ; settings: glycan changed form; control: wild type
[2] = GFP-Zyxin1–350 microscopy, U2OS, ± mCherry-14-3-3γ; settings: glycan changed form; control: Zyxin (1–350), Ser-169
His-Zyxin (wildtype) = target: T1, His-Zyxin (wildtype); assay: pull-down

Row | Binder | other: 14-3-3γ-induced nuclear localisation [1] | other: 14-3-3γ-induced nuclear localisation [2] | binding result (His-Zyxin (wildtype))
1 | B1 | no change | no change | 
2 | B2 |  |  | binds
